Substrate in the data set: CC(C)C=O
In words: Alcohol dehydrogenase kinetic assay, Ec_YqhD. Type of data set: biochemical, E. coli. To be noted: other: NADPH as cofactor; conversion to isobutanol. As for the experimental part: E. coli strain GEVO1745 was transformed by electroporation with one of plasmids pGV1705-A, pGV1748-A, pGV1749-A, or pGV1778-A. 50 mL of TB medium (23.1 g/L KH2PO4, 125.4 g/L K2HPO4, 12 g/L Bacto-tryptone, 24 g/L yeast extract, 4 ml/L glycerol) were inoculated to an initial OD600 of 0.2 using a 3 mL overnight LB culture of a single colony. The 50 mL culture was allowed to grow for 3-4 hrs at 250 rpm and 37° C. Protein expression was induced at an OD600 of 2-2.5 by the addition of IPTG to a final concentration of 1 mM. After the addition of IPTG, protein expression was allowed to continue for 20-24 hours at 225 rpm and 25° C.
Alcohol dehydrogenase (ADH) activity was assayed kinetically by monitoring the decrease in NAD(P)H concentration by measuring the absorbance at 340 nm. A reaction buffer was prepared containing 0.1 M potassium phosphate, 0.4 mM NAD(P)H, 10 mM isobutyraldehyde, 1 mM DTT, and 1 mM PMSF. Cell pellets were resuspended in 0.1 M potassium phosphate buffer containing 1 mM DTT and 1 mM PMSF at one fifth of the culture volume, i.e. 10 mL resuspension buffer for cell pellet from a 50 mL culture. The resuspended cells were lysed by sonication for 1 min with a 50% duty cycle. The reaction was initiated by the addition of 0.5 mL of the reaction buffer to 0.5 mL of clarified lysate in a cuvette. […]

B1: E. coli alcohol dehydrogenase Ec_YqhD, SEQ ID NO: 69 (Escherichia coli K-12) (protein)
chain: MNNFNLHTPTRILFGKGAIAGLREQIPHDARVLITYGGGSVKKTGVLDQVLDALKGMDVLEFGGIEPNPAYETLMNAVKLVREQKVTFLLAVGGGSVLDGTKFIAAAANYPENIDPWHILQTGGKEIKSAIPMGCVLTLPATGSESNAGAVISRKTTGDKQAFHSAHVQPVFAVLDPVYTYTLPPRQVANGVVDAFVHTVEQYVTKPVDAKIQDRFAEGILLTLIEDGPKALKEPENYDVRANVMWAATQALNGLIGAGVPQDWATHMLGHELTAMHGLDHAQTLAIVLPALWNEKRDTKRAKLLQYAERVWNITEGSDDERIDAAIAATRNFFEQLGVPTHLSDYGLDGSSIPALLKKLEEHGMTQLGENHDITLDVSRRIYEAAR
As for B1, the Michaelis-Menten constant (Km) amounted to 250 µM.

These data come from US8097440B1, “Engineered microorganisms capable of producing target compounds under anaerobic conditions” (Gevo, Inc., priority 2008, dated 2012).
